For 1 molecule, Kd results are on record in publication PMC7266990 (2020).

The assay has as its target A. fumigatus wt CBC consisting of the HapB^230–299, HapC^40–137, and HapE^47–164 subunits (Aspergillus fumigatus). Kind of assay: SPR.

B1: A. fumigatus HapX^24–158 bZIP peptide (covering the CBC-binding domain, basic region, and coiled-coil domain) (domain or fragment)
chain: SPSPGPGTPGSITSKEWVIPPRPKPGRKPATDTPPTKRKAQNRAAQRAFRERRAARVNELEEQIKKIEDEHEIHIAAFKEQITNLSREVEQCRSEMTWWRDRCHALEKEVSVERSAKEAIVKEFRSSLSDREAVR
What is called Kd is the equilibrium constant for the complex coming apart. Read a low Kd as higher affinity. For B1, binding was put at a Kd of 1.01 nM. This lies in the single-digit nanomolar range.
